Source: patent publication US20220387457A1

Substrate: CC1(C)Oc2ccc(C#N)cc2[C@@H](N2CCCC2=O)[C@@H]1OP(=O)(O)O
Test: purified protein, by the assay type
Type: biochemical, human
Details: other: ALP 0.02 U/100 μL, pH 10, 37.0 °C
Protocol: To activate CKLP1, the phosphate is hydrolyzed from phosphatases to produce leveromakalim, the active moiety that can open (activate) ATP-sensitive potassium channels.
In the first experiment, a fixed concentration of CKLP1 solution was incubated with varying concentrations of placenta-derived human alkaline phosphatase. To accomplish this, placenta-derived human alkaline phosphatase (0.0002 U) in a 100-μL volume was added to each of thirteen 1.5-mL tubes. To each tube, CKLP1 was then added at a fixed concentration [10 mM (0.4%)]. Tubes were inverted twice and incubated in a water bath at 37° C. At each of 13 different time points (0, 1, 2.5, 5, 15, and 30 minutes and at 1, 2, 4, 8, 24, 48, and 72 hours), a single tube was removed, and the reaction was stopped by the addition of 2 volumes (200 μL) of acetonitrile. Samples were stored at −80° C. The experiment was repeated with 10 mM CKLP1 (0.4%) in the presence of placenta-derived human alkaline phosphatase at concentrations of 0.002 U, 0.02 U, and 0.2 U. All assays were performed at pH 10.
In a second experiment, a fixed concentration of placenta-derived human alkaline phosphatase was incubated with varying concentrations of CKLP1. To accomplish this, a fixed concentration of 0.02 U of placenta-derived human alkaline phosphatase in a 100-μL volume was added to each of thirteen 1.5-mL tubes. […]

B1: placenta-derived human alkaline phosphatase (Homo sapiens) (protein)
chain: IIPVEEENPDFWNREAAEALGAAKKLQPAQTAAKNLIIFLGDGMGVSTVTAARILKGQKKDKLGPEIPLAMDRFPYVALSKTYNVDKHVPDSGATATAYLCGVKGNFQTIGLSAAARFNQCNTTRGNEVISVMNRAKKAGKSVGVVTTTRVQHASPAGTYAHTVNRNWYSDADVPASARQEGCQDIATQLISNMDIDVILGGGRKYMFRMGTPDPEYPDDYSQGGTRLDGKNLVQEWLAKRQGARYVWNRTELMQASLDPSVTHLMGLFEPGDMKYEIHRDSTLDPSLMEMTEAALRLLSRNPRGFFLFVEGGRIDHGHHESRAYRALTETIMFDDAIERAGQLTSEEDTLSLVTADHSHVFSFGGYPLRGSSIFGLAPGKARDRKAYTVLLYGNGPGYVLKDGARPDVTESESGSPEYRQQSAVPLDEETHAGEDVAVFARGPQAHLVHGVQEQTFIAHVMAFAACLEPYTACDLAPPAGTTD
notes: varying concentrations of placenta-derived human alkaline phosphatase; from tissue; host or cells: human placenta
Q: How did the Km turn out when B1 was run?
A: The Km was 399 µM.
